The labels stand for the following.
B1: FimAt (residues 18-159 of FimA) (domain or fragment, E. coli, UniProt P04128 41-182, looked up)
chain: NAACAVDAGSVDQTVQLGQVRTASLAQEGATSSAVGFNIQLNDCDTNVASKAAVAFLGTAIDAGHTNVLALQSSAAGSATNVGVQILDRTGAALTLDGATFSSETTLNNGTNTIPFQARYFATGAATPGAANADATFKVQYQ
B2: FimI (natural protein, E. coli W3110, UniProt P39264 20-179, looked up)
chain: GNKWNTTLPGGNMQFQGVIIAETCRIEAGDKQMTVNMGQISSNRFHAVGEDSAPVPFVIHLRECSTVVSERVGVAFHGVADGKNPDVLSVGEGPGIATNIGVALFDDEGNLVPINRPPANWKRLYSGSTSLHFIAKYRATGRRVTGGIANAQAWFSLTYQ
notes: also called assembly terminator subunit FimI
B3: FimC (natural protein, E. coli, UniProt P31697 37-241, looked up)
chain: GVALGATRVIYPAGQKQEQLAVTNNDENSTYLIQSWVENADGVKDGRFIVTPPLFAMKGKKENTLRILDATNNQLPQDRESLFWMNVKAIPSMDKSKLTENTLQLAIISRIKLYYRPAKLALPPDQAAEKLRFRRSANSLTLINPTPYYLTVTELNAGTRVLENALVPPMGESTVKLPSDAGSNITYRTINDYGALTPKMTGVME
notes: also called periplasmic chaperone FimC; untagged FimC; source: in FimCF and FimCG co-expressed in the periplasm of E. coli HM125
B4: FimCHis (FimC with C-terminal hexahistidine tag) (natural protein, E. coli, UniProt P31697 37-241, looked up)
chain: B3 chain
B5: FimAtHis (wild-type FimA missing residues 1-13 but with an N-terminal hexahistidine tag) (domain or fragment, E. coli, UniProt P04128 37-182, looked up)
chain: GEVVNAACAVDAGSVDQTVQLGQVRTASLAQEGATSSAVGFNIQLNDCDTNVASKAAVAFLGTAIDAGHTNVLALQSSAAGSATNVGVQILDRTGAALTLDGATFSSETTLNNGTNTIPFQARYFATGAATPGAANADATFKVQYQ
notes: also called FimAt (in the FimCHisIA structure)
B6: FimA (natural protein, E. coli, UniProt P04128 24-182, looked up)
chain: AATTVNGGTVHFKGEVVNAACAVDAGSVDQTVQLGQVRTASLAQEGATSSAVGFNIQLNDCDTNVASKAAVAFLGTAIDAGHTNVLALQSSAAGSATNVGVQILDRTGAALTLDGATFSSETTLNNGTNTIPFQARYFATGAATPGAANADATFKVQYQ
notes: also called main structural pilus subunit FimA; FimA wild-type

The target of assay [1] is B6. Description: reconstitution by donor strand exchange and co-purification (cation exchange chromatography, SEC); 2 μM FimCA with 10 μM FimCAt at pH 7.0 and 37 °C overnight; FimCAA purified on Resource S and Superdex 75; identity by ESI-MS. The settings on record: both partners purified.
The assay “FimC” concerns the target B3. Briefly: refolding of the subunit with the chaperone and co-purification (cation exchange chromatography, SEC); denatured, disulfide-intact subunit diluted into buffer with an excess of FimC or FimCHis; complex purified by cation exchange and (not for FimCHisI) Superdex 75; FimCA eluted as a 1:1 complex; identity by ESI-MS. The settings on record: both partners purified.

The target in assay [2] is B4. Description: crystal structure. The settings on record: both partners purified.
In assay [3] the target is B2. Briefly: cell-based or functional assay.
Assay [4] addresses B6. Briefly: cell-based or functional assay.
Assay [5] has as its target B6. Description: chaperone exchange kinetics followed by analytical cation exchange chromatography; 4 μM complex incubated with a 9-fold molar excess (36 μM) of the differently tagged FimC (untagged FimC against FimCHis complexes, FimCHis against FimCA and FimCAA); 20 mM MES-NaOH pH 6.0, 37 °C; single-exponential fit. The settings on record: both partners purified.
In a further assay the target is T1, FimFt (E. coli).
T1 chain: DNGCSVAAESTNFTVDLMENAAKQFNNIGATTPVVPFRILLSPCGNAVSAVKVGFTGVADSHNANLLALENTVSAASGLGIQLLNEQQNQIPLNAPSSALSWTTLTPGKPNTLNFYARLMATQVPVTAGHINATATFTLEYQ
The description is as above. Particulars: both partners purified.

The target of assay [6] is T2, FimF-FimGt (the two subunits of the ternary FimCHisFG complex) (E. coli, UniProt P08189 21-176; P08190 24-167).
T2 chain 1: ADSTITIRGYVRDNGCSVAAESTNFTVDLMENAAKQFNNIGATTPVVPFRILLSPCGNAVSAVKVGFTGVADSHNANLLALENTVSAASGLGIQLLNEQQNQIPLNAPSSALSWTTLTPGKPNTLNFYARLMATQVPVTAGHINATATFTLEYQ
T2 chain 2: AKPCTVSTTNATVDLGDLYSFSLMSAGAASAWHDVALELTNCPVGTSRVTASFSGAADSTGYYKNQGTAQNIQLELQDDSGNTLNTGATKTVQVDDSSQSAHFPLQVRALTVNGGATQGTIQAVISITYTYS
The description is as above. The settings on record: both partners purified.

For assay [7], the target named is T3, FimI-FimAtHis (the two subunits of the ternary FimCHisIA complex) (E. coli W3110 | E. coli, UniProt P39264 20-179; P04128 37-182).
T3 construct: also called FimI-FimA part of FimCHisIA
T3 sequence (looked up) 1: B2 chain
T3 sequence (looked up) 2: B5 chain
The assay is described as above. Particulars: both partners purified.

Assay [8] has as its target B2. The assay is described as above. Particulars: both partners purified.
The target of assay [9] is B2. Description: crystal structure. The settings on record: both partners purified.
In assay [10] the target is B4. Briefly: crystal structure; FimCHis-FimI-FimAtHis complex, 2.8 Å, space group P6(1), two complexes in the asymmetric unit, crystals at 293 K from 0.8 M sodium formate, 100 mM Tris/acetic acid pH 8.5, 16% PEG 4000. Particulars: both partners purified.

Turning to B1, the binding result in the assay with FimA [1] and with FimC was “binds” in each case.
As to B2, the binding result (in assay [2]; in the assay with FimC) was “binds” throughout.
For the molecule B3, the “FimC-catalyzed folding of oxidized, unfolded FimI, rate constant by stopped-flow tryptophan fluorescence (pseudo-first-order fit, pH 8.0)” value with FimI [3] turned out to be 73000 M^−1 s^−1. In addition, the “FimC-catalyzed folding of oxidized, unfolded FimA, rate constant by stopped-flow tryptophan fluorescence (pseudo-first-order fit, pH 8.0)” value with FimA [4] worked out at 43000 M^−1 s^−1. In the assay with FimA [5], this molecule registered a dissociation half-life of 26 ± 1 s.
In the case of B4, the dissociation half-life was 1.58 ± 0.14 h with FimFt, 1.41 ± 0.12 h in assay [6], 3.85 ± 0.43 h in assay [7] and 1.05 ± 0.095 min in the assay with FimI [8].
Take B5: the binding result (in the assay with FimI [9]; in assay [10]) was “binds” each time.
For B6, the binding result with FimC is “binds”.

(Values after publication PMC10673952, “Stochastic chain termination in bacterial pilus assembly” (Nature Communications, 2023).)
